Results reported in patent publication US20230322953A1 (HARBOUR BIOMED SHANGHAI, published 2023).
Positions count from the first letter of the chain named.

T1: human BCMA (human, UniProt Q02223 1-184)
T1 construct: whole, on cells; also called hBCMA; TNFRSF17
T1 sequence (looked up): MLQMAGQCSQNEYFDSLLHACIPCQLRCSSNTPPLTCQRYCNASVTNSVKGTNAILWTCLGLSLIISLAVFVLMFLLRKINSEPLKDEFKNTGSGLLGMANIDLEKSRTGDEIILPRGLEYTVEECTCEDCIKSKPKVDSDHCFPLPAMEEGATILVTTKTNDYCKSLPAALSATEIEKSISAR

B1: PR003870 (bispecific antibody, human IgG1, lambda, L234A L235A)
light: QAVVTQEPSLTVSPGGTVTLTCRSSTGAVTTSNYANWVQQKPGQAPRGLIGGTNKRAPWTPARFSGSLLGDKAALTLLGAQPEDEAEYFCALWYSNLWVFGGGTKLTVLGQPKAAPSVTLFPPSSEELQANKATLVCLISDFYPGAVTVAWKADSSPVKAGVETTTPSKQSNNKYAASSYLSLTPEQWKSHRSYSCQVTHEGSTVEKTVAPTECS
heavy: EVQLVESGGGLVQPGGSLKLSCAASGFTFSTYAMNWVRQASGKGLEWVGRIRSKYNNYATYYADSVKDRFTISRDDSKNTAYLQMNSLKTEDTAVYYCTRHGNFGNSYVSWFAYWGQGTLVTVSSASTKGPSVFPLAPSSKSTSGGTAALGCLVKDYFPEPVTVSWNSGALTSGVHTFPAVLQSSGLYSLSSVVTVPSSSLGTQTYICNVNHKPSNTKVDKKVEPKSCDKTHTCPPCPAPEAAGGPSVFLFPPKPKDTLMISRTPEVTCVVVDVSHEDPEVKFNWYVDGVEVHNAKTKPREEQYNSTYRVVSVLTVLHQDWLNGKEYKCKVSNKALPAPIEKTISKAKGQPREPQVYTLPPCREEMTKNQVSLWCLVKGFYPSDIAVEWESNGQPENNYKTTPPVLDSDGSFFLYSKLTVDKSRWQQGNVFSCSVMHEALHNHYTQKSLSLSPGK
chain: EVQLVETGGGLIQPGGSLRLSCAASGFTVSDAYMTWVRQAPGKGLEWVSVIFSGGNTYVSDSVKGRFTISRDNAKNTLYLQMNSLRAEDTALYYCARRNYDQTIGTDVFDIWGQGTMVTVSSASEPKSSDKTHTCPPCPAPEAAGGPSVFLFPPKPKDTLMISRTPEVTCVVVDVSHEDPEVKFNWYVDGVEVHNAKTKPREEQYNSTYRVVSVLTVLHQDWLNGKEYKCKVSNKALPAPIEKTISKAKGQPREPQVCTLPPSREEMTKNQVSLSCAVKGFYPSDIAVEWESNGQPENNYKTTPPVLDSDGSFFLVSKLTVDKSRWQQGNVFSCSVMHEALHNHYTQKSLSLSPGK
notes: BCMAxCD3, Fab-Fc-VH (structure 11); CD3 Fab of PR003886, BCMA VH of PR004565; IgG1 knob/hole, LALA
B2: PR001996 (bispecific antibody, IgG1)
chain 1: EVQLLESGGGLVQPGGSLRLSCAASGFTFNTYAMNWVRQAPGKGLEWVSRIRSKYNNYATYYADSVKDRFTISRDDSKSTLYLQMNSLRAEDTAVYYCVRHGNFGNSYVSWFAYWGQGTLVTVSSASTKGPSVFPLAPSSKSTSGGTAALGCLVKDYFPEPVTVSWNSGALTSGVHTFPAVLQSSGLYSLSSVVTVPSSSLGTQTYICNVNHKPSNTKVDKKVEPKSC
chain 2: QAVVTQEPSLTVSPGGTVTLTCRSSTGAVTTSNYANWVQQKPGQAPRGLIGGTNKRAPWTPARFSGSLLGDKAALTLLGAQPEDEAEYFCALWYSNLWVFGGGTKLTVLGQPKAAPSVTLFPPSSEELQANKATLVCLISDFYPGAVTVAWKADSSPVKAGVETTTPSKQSNNKYAASSYLSLTPEQWKSHRSYSCQVTHEGSTVEKTVAPTECSDKTHTCPPCPAPEAAGGPSVFLFPPKPKDTLMISRTPEVTCVVVDVSHEDPEVKFNWYVDGVEVHNAKTKPREEQYNSTYRVVSVLTVLHQDWLNGKEYKCKVSNKALGAPIEKTISKAKGQPREPQVYTLPPCREEMTKNQVSLWCLVKGFYPSDIAVEWESNGQPENNYKTTPPVLDSDGSFFLYSKLTVDKSRWQQGNVFSCSVMHEALHNHYTQKSLSLSPGK
chain 3: EVQLVETGGGLIQPGGSLRLSCAASGFPVSSNYMSWVRQAPGKGLEWVSVIFSGGRTYYADSVKGRFTISRDNSKNTLYLQMNSLRAEDTAVYYCARRNWIDGRDAFDIWGQGTMVTVSSASEPKSSDKTHTCPPCPAPEAAGGPSVFLFPPKPKDTLMISRTPEVTCVVVDVSHEDPEVKFNWYVDGVEVHNAKTKPREEQYNSTYRVVSVLTVLHQDWLNGKEYKCKVSNKALGAPIEKTISKAKGQPREPQVCTLPPSREEMTKNQVSLSCAVKGFYPSDIAVEWESNGQPENNYKTTPPVLDSDGSFFLVSKLTVDKSRWQQGNVFSCSVMHEALHNHYTQKSLSLSPGK
notes: BCMAxCD3, Fab(cross Fd/LC)-Fc-VH (structure 13); CD3 of PR000511, BCMA VH of PR000943; IgG1 knob/hole, AAG
B3: PR001997 (bispecific antibody, IgG1)
chain 1: B2 chain 1
chain 2: B2 chain 2
chain 3: B2 chain 3 with P28T, S35T, R56S, N99I, W100A, I101V, D102A, R104H, A106V
notes: BCMAxCD3, Fab(cross Fd/LC)-Fc-VH (structure 13); CD3 of PR000511, BCMA VH of PR001035; IgG1 knob/hole, AAG
B4: PR003872 (bispecific antibody, human IgG1, lambda, L234A L235A)
light: B1 light
heavy: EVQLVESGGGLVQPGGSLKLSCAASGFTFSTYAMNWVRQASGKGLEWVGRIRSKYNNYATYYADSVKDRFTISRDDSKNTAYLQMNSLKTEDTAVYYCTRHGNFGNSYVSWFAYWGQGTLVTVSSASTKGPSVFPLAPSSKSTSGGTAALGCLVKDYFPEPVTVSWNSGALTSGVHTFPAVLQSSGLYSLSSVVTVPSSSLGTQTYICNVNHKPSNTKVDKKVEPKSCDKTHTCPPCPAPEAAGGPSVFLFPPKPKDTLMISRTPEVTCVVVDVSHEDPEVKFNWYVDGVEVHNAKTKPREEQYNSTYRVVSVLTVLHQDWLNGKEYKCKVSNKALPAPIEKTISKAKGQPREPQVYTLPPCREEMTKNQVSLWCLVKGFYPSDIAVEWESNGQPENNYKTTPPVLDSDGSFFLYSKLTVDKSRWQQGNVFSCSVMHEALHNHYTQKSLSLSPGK
chain: B1 chain with A32S, N56K, S60A, I104R
notes: BCMAxCD3, Fab-Fc-VH (structure 11); CD3 Fab of PR003886, BCMA VH of PR004567; IgG1 knob/hole, LALA
B5: PR001998 (bispecific antibody, IgG1)
chain 1: B2 chain 1
chain 2: B2 chain 2
chain 3: B1 chain with A32N, V59Y, S60A, Q102D, I104R, P238G
notes: BCMAxCD3, Fab(cross Fd/LC)-Fc-VH (structure 13); CD3 of PR000511, BCMA VH of PR001046; IgG1 knob/hole, AAG
B6: PR001999 (bispecific antibody, IgG1)
chain 1: QAVVTQEPSLTVSPGGTVTLTCRSSTGAVTTSNYANWVQQKPGQAPRGLIGGTNKRAPWTPARFSGSLLGDKAALTLLGAQPEDEAEYFCALWYSNLWVFGGGTKLTVLGGGQSGQGGSGGGGSEVQLVESGGGLVQPGGSLKLSCAASGFTFNTYAMNWVRQASGKGLEWVGRIRSKYNNYATYYADSVKDRFTISRDDSKSTLYLQMNSLKTEDTAVYYCVRHGNFGNSYVSWFAYWGQGTLVTVSSASEPKSSDKTHTCPPCPAPEAAGGPSVFLFPPKPKDTLMISRTPEVTCVVVDVSHEDPEVKFNWYVDGVEVHNAKTKPREEQYNSTYRVVSVLTVLHQDWLNGKEYKCKVSNKALGAPIEKTISKAKGQPREPQVYTLPPCREEMTKNQVSLWCLVKGFYPSDIAVEWESNGQPENNYKTTPPVLDSDGSFFLYSKLTVDKSRWQQGNVFSCSVMHEALHNHYTQKSLSLSPGK
chain 2: EVQLLESGGGLVQPGGSLRLSCAASGFTFSSYAMIWVRQAPGKGLEWVSGISESGGSTYYADSVKGRFTISRDNSKNTLYLQMNSLRAEDTAVYFCVKDLDDILTGYYKDYWGQGTLVTVSSASEPKSSDKTHTCPPCPAPEAAGGPSVFLFPPKPKDTLMISRTPEVTCVVVDVSHEDPEVKFNWYVDGVEVHNAKTKPREEQYNSTYRVVSVLTVLHQDWLNGKEYKCKVSNKALGAPIEKTISKAKGQPREPQVCTLPPSREEMTKNQVSLSCAVKGFYPSDIAVEWESNGQPENNYKTTPPVLDSDGSFFLVSKLTVDKSRWQQGNVFSCSVMHEALHNHYTQKSLSLSPGK
notes: CD3 scFv of PR000510, BCMA VH of PR000940; IgG1 knob/hole, AAG
B7: PR003874 (bispecific antibody, human IgG1, lambda, L234A L235A)
light: B1 light
heavy: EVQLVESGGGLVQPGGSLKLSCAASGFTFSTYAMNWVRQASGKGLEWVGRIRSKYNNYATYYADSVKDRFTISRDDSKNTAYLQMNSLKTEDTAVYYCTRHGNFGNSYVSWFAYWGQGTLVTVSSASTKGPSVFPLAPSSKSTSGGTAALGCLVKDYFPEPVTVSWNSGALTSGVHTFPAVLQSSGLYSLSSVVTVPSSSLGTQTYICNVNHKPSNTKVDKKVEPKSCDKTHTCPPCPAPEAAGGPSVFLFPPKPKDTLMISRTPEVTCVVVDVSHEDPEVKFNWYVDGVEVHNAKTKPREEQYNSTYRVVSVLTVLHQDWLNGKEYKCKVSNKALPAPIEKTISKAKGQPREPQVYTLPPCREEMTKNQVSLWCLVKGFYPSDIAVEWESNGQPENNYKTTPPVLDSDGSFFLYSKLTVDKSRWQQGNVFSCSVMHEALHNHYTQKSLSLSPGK
chain: B1 chain with A32S, N56R, V59Y, I104R
notes: BCMAxCD3, Fab-Fc-VH (structure 11); CD3 Fab of PR003886, BCMA VH of PR004569; IgG1 knob/hole, LALA
B8: PR002000 (bispecific antibody, IgG1)
chain 1: B6 chain 1
chain 2: B2 chain 3
notes: BCMAxCD3, scFv(VL-VH)-Fc-VH (structure 20); CD3 scFv of PR000510, BCMA VH of PR000943; IgG1 knob/hole, AAG
B9: PR002002 (bispecific antibody, IgG1)
chain 1: B6 chain 1
chain 2: B1 chain with A32N, V59Y, S60A, Q102D, I104R, P238G
notes: BCMAxCD3, scFv(VL-VH)-Fc-VH (structure 20); CD3 scFv of PR000510, BCMA VH of PR001046; IgG1 knob/hole, AAG

molecular target: T1, human BCMA; experiment: FACS on NCI-H929 cells
Experimental: This example is intended to investigate the binding activity of anti-BCMA HCAb antibodies to human and cynomolgus monkey BCMAs. […] Specifically, HEK293T/hBCMA cells and HEK293T/cyno BCMA cells were digested and resuspended in a DMEM complete medium. In addition, NCI-H929 cell suspension was collected. The density of each of the three cells was adjusted to 1×10⁶ cells/mL. […] The cells were incubated at 4° C. for 1 h away from light. Thereafter, the cells in each well were rinsed twice with 100 μL of pre-cooled PBS, and centrifuged at 500 g at 4° C. for 5 min, and then the supernatant was discarded. […] The cells in each well were rinsed twice with 100 μL of pre-cooled PBS, and centrifuged at 500 g at 4° C. for 5 min, and then the supernatant was discarded. Finally, the cells in each well were resuspended in 200 μL of pre-cooled PBS. Fluorescence signal values were read using a BD FACS CANTOII flow cytometer or an ACEA NovoCyte flow cytometer, and the data were processed and analyzed using FlowJo v10 (FlowJo, LLC) software. The data were processed and analyzed by plotting using GraphPad Prism 8 software, and binding curves of the antibodies to target cells, EC₅₀ values and other parameters were obtained through four-parameter nonlinear fitting.

| Binder | EC50 [nM] | Maximum MFI |
| --- | --- | --- |
| B1 | 3.3 | 10600 |
| B2 | – | 3320 |
| B3 | – | 1460 |
| B4 | 1.1 | 11300 |
| B5 | – | 3260 |
| B6 | – | 3480 |
| B7 | 1.5 | 11000 |
| B8 | – | 4640 |
| B9 | – | 4500 |
